Source: US11406665B2, “Therapeutic peptides that target TGF-beta interaction” (GENAGON THERAPEUTICS AB, priority 2017, dated 2022)

B1: GDF15: Growth and Differentiation Factor 15, TGF-β superfamily ligand of CLPTM1 (protein)
chain: ARNGDHCPLGPGRCCRLHTVRASLEDLGWADWVLSPREVQVTMCIGACPSQFRAANMHAQIKTSLHRLKPDTVPAPCCVPASYNPMVLIQKTDTGVSLQTYDDLLAKDCHCI
B2: TGFb3: TGF-β isoform 3, ligand for CLPTM1 (protein)
chain: ALDTNYCFRNLEENCCVRPLYIDFRQDLGWKWVHEPKGYYANFCSGPCPYLRSADTTHSTVLGLYNTLNPEASASPCCVPQDLEPLTILYYVGRTPKVEQLSNMVVKSCKCS

Key:
[1] = biological target: T1, TGFb3 (Homo sapiens, UniProt P10600); assay: ELISA binding of ligand to immobilized CLPTM1 peptide fragments; details: biotinylated peptide immobilized at 1 μM; ligand 100 ng/ml; OD 450-620 measured
T1 construct: purchased Abcam
T1 sequence (P10600 301-412 limits assumed): B2 chain
Description: (§1) Biotinylated synthetic peptide fragments from CLPTM1 (JPT peptides, Germany) were immobilized in a streptavidin 96 well plate (#15500 Pierce) at 1 μM in PBS over night at +4° C. Plate was then washed 4 times in 300 μl PBS with 0.05% tween-20 (wash buffer). The plate was then blocked with PBS 1% BSA and 0.05% tween-20 (blocking buffer) for 1.5 hours at room temperature, then washed 4 times in wash buffer. Ligands GDF15, TGFb1, TGFb2 and TGFb3 (Abcam) were added in blocking buffer at 100 ng/ml and incubated at room temperature for 2 hours. The plate was then washed 8 times in 300 μL wash buffer with 2× NaCl. An anti-GDF15 antibody was added at 1 μg/ml (R&D Systems, goat polyclonal) or a pan-specific anti-TGFb antibody (R&D Systems, mouse 1 D11), and the plate incubated in blocking buffer for 1 hour at room temperature followed by washing with 4×300 μl wash buffer. HAF017 anti-goat-HRP antibody (to detect the anti-GDF15 antibody) or Santa Cruz sc-2005 Goat anti-mouse-HRP (to detect the pan-specific anti-TGFb antibody) was added and the plate incubated for 1 hour in blocking buffer followed by a wash. TMB substrate was added and stopped after 15 minutes with H2SO4. OD 450-620 was measured in an ELISA reader.

[2] = biological target: T2, TGFb2 (Homo sapiens, UniProt P61812); assay: as above; details: biotinylated peptide immobilized at 1 μM; ligand 100 ng/ml; OD 450-620 measured
T2 construct: purchased Abcam
T2 sequence (P61812 303-414 limits assumed): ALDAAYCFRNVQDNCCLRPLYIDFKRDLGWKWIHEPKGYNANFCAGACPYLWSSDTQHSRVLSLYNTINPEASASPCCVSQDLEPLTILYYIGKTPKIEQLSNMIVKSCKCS
Description: as §1

[3] = biological target: T3, GDF15 (Homo sapiens, UniProt Q99988); assay: as above; details: biotinylated peptide immobilized at 1 μM; ligand 100 ng/ml; OD 450-620 measured
T3 construct: purchased Abcam
T3 sequence (Q99988 195-308): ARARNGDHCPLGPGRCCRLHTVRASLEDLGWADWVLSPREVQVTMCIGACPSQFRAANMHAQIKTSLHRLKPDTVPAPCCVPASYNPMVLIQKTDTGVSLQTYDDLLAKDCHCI
Description: as §1

[4] = biological target: T4, TGFb1 (Homo sapiens, UniProt P01137); assay: as above; details: biotinylated peptide immobilized at 1 μM; ligand 100 ng/ml; OD 450-620 measured
T4 construct: purchased Abcam
Description: as §1

[5] = test system: TGF-β proteins; assay: ELISA of Example 1, binding; details: result in words
Description: as §1

[6] = test system: M2 polarized macrophages; assay: isPLA of TBK1 after ligand stimulation; format: cell-based, human; details: 10 ng/ml o/n, vs untreated control
Description: Human primary M2 polarized macrophages was derived from PBMC obtained from healthy volunteer blood donors. CD14+ cells were isolated using an EasySep CD14 Positive Selection Kit, maintained in RPMI-1640 medium supplemented with 10% FBS, L-Glutamine and Pen-strep. Cells were cultivated for 6 days in the presence of 50 ng/ml recombinant macrophage colony-stimulating factor (M-CSF, R&D Systems) in order to polarize the cells towards an M2 subtype.
For in situ proximity ligation assay (isPLA) experiments the cells were re-plated into 8-well slides (Lab-Tek™ II Chamber Slides, Thermo Fisher).
Cells were stimulated with either TGFB1, TGFB2, TGFB3 at 10 ng/ml. For isPLA, new medium was added, with individual ligands added to separate wells, and the cells incubated o/n prior to fixation in 3% formaldehyde solution for 20 minutes on ice the following day. Fixed cells were washed extensively in PBS and lysed in PBS with 1% Triton at room temperature for 20 minutes. The cells were blocked with Duolink blocking solution (Sigma) and primary antibodies at 1 μg/ml were added o/n. […] The slides were analysed using a Zeiss inverted epiflouroscence microscope set at 20× magnification. DAPI, FITC and CY3.5 channels were recorded. […]

[7] = test system: MCF7 cells; assay: Proseek secreted proteins, MCF7 culture; format: cell-based, human; details: FIG. 6A: exosomes from MCF7 cells, GDF15 1.5 μg/ml 1 hr
Description: Secreted proteins from cell cultures where quantified using multiplexed proximity extension assay, Proseek (Assarsson E et al PlosOne 2014) by Olink Proteomics AB (Uppsala Sweden). Data is presented as Normalized Protein Expression (NPX log 2-scale). The Oncology I v2 92-plex panel was run. MCF7 cells were cultured in serum-free conditions (No FBS added to DMEM) overnight prior to ligand stimulation, and media was replaced 3 times before stimulation to avoid exosomes from FBS. Cells were either treated with control (PBS) or biologically active GDF15 (Abcam) at 1.5 μg/ml for 1 hr at 37° C. For analyses of exosomes in FIG. 6A, conditioned medium was pre-cleared by centrifugation at 14,000×g for 10 min at 4° C., followed by filtration with a […] filter to avoid contaminants from cell debris, followed by ultracentrifugation at 100,000×g for 2 hrs. Pelleted exosome fraction was lysed with 1% Triton X-100 at 4° C., samples diluted in order to have 0.3% Triton concentration and analysed by Proseek multiplex panel as described above.

[8] = test system: PBMC; assay: Proseek secreted proteins, PBMC culture; format: cell-based
Description: (§2) Secreted proteins from cell cultures where quantified using multiplexed proximity extension assay, Proseek (Assarsson E et al PlosOne 2014) by Olink Proteomics AB (Uppsala Sweden). Data is presented as Normalized Protein Expression (NPX log 2-scale). The Oncology I v2 92-plex panel was run.
A cell suspension of heparinized peripheral blood was diluted 1:1 and placed on a Ficoll Paque Plus. Cells were centrifuged at 400×g for 30 minutes and the PBMC layer was transferred to a 50 ml tube of PBS and centrifuged for 7 min at 250×g.

[9] = test system: MCF7 breast cancer cells; assay: Western blot of PTP1B after ligand stimulation; format: cell-based, human; details: ligand 10 ng/ml, vs untreated control
[10] = test system: NK-92 cells; assay: Proseek secreted proteins, NK-92 culture; format: cell-based; details: NK92 culture
Description: as §2, with “run. NK-92 cells were cultured in RPMI-1640 supplemented with 10% FBS, 12.5% Horse serum, L-glutamine, IL2 and 3-mercaptoethanol.” for “run.”

T4 sequence (P01137 279-390 limits assumed): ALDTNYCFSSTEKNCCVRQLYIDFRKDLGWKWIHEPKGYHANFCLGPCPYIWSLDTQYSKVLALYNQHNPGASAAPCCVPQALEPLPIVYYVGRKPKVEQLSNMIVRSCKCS

Row | Molecule | ELISA OD450 TGFb3 [1] | ELISA OD450 TGFb2 [2] | ELISA OD450 GDF15 [3] | ELISA OD450 TGFb1 [4] | binding to TGF-β proteins [5] | also measured
1 | LWRWQLYAAQSTKSPWNFLGDELYEQSDEEQDSVKVALLETNP (listed as Homo sapiens) [SEQ ID NO: 33] | 0.011 | 0.008 | 0.033 | 0.013 | – | –
2 | GDYYPIIYFNDYWNLQKDYYG (listed as Homo sapiens) [SEQ ID NO: 28] | 0.065 | 0.019 | 0.140 | 0.152 | binding | –
3 | NAWQVIKGVLFRIFIIWAISSWFRRGPAPQDQAGPGGA (listed as Homo sapiens) [SEQ ID NO: 35] | 0.151 | 0.164 | 0.507 | 1.536 | – | –
4 | KALYRRLATVHMSRMINKYKG (listed as Homo sapiens) [SEQ ID NO: 17] | 0.0060 | 0.013 | 0.042 | 0.026 | binding | –
5 | PLDQYVKFDAVSGDYYPIIYFNDYWNLQKDYYPINESLA (listed as Homo sapiens) [SEQ ID NO: 39] | 0.300 | 1.630 | 0.779 | 2.102 | favourable binding | –
6 | TKSGFHPDPRQKALYRRLATVHMSRMINKYKRRRFQKTKN (listed as Homo sapiens) [SEQ ID NO: 37] | 0.041 | 0.009 | 0.055 | 0.015 | binding has also been observed | –
7 | VSGDYYPIIYFNDYWNLQKDYYPINESLASLPLRVSFC (listed as Homo sapiens) [SEQ ID NO: 38] | 0.029 | 0.014 | 0.061 | 0.032 | favourable binding | –
8 | SGDYYPIIYFNDYWNLQKDYYPINESLASLPLRVSFCPLS (listed as Homo sapiens) [SEQ ID NO: 32] | 0.014 | 0.007 | 0.022 | 0.010 | favourable binding | –
9 | TGFb1: TGF-β isoform 1, ligand for CLPTM1 | – | – | – | – | – | TBK1 level [6]: reduced
10 | LDQYVKFDAVSGDYYPIIYFG (listed as Homo sapiens) [SEQ ID NO: 21] | 0.020 | 0.002 | 0.034 | 0.022 | binding | –
11 | ARSAVVAAGGGSSGQVTSNGSIGRDPPAETQPQNPPAQPA (listed as Homo sapiens) [SEQ ID NO: 34] | 0.018 | 0.025 | 0.220 | 0.043 | – | –
12 | SGDYYPIIYFNDYWNLQKDYYPINESLA (listed as Homo sapiens) [SEQ ID NO: 40] | 0.007 | 0.009 | 0.021 | 0.177 | favourable binding | –
13 | YPINESLASLPLRVSFCPLSG (listed as Homo sapiens) [SEQ ID NO: 27] | 0.068 | 0.005 | 0.098 | 0.011 | binding | –
14 | 38 (VSGDYYPIIYFNDYWNLQKDYYPINESLASLPLRVSFC; listed as Homo sapiens) [compound 38] | 0.091 | – | – | – | – | –
15 | DTLMNLHVYISEHEHFTDFNATSALFWEQHDLVYGDWTSG (listed as Homo sapiens) [SEQ ID NO: 36] | 0.019 | 0.006 | 0.023 | 0.010 | binds | –
16 | 36 (DTLMNLHVYISEHEHFTDFNATSALFWEQHDLVYGDWTSG; listed as Homo sapiens) [compound 36] | 0.095 | – | – | – | – | –
17 | B1 | – | – | – | – | – | Midkine (MK) expression [7]: increased; HB-EGF secretion [8]: increased; IFNγ expression [8]: reduced
18 | B2 | – | – | – | – | – | PTP1B level [9]: significantly reduced; Caspase-3 secretion [10]: increased; CXCL9 secretion [8]: reduced; CXCL11 secretion [8]: reduced
